Results published in the supplement of paper PMC10567573.

B1: TRIM15 (parent)
chain: LSQMGAQSSGKILLCPLCQEEEQA
B2: FLOT1 (parent)
chain: QMAKKAEAFQLYQEAAQLDMLLEK

Variants of: B1
Assay: protein stability index of a GFP-peptide fusion (GPS, HEK-293T) (PSI 1-6); higher = more stable
Settings: c terminus: a fixed tail appended
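Further: lentivirally expressed fusions sorted by FACS into six bins by GFP to DsRed ratio, PSI derived from sequencing read proportions per bin multiplied by bin number.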

Protein stability index of substitutions, site by site:
Q19: E 4.01; V 4.04; T 3.83; F 3.62; P 4.42; W 2.78; I 3.18; L 2.62; G 3.98; M 3.19; C 2.52; H 3.24; A 4.35; K 3.46; S 3.23; R 3.54; Y 3.73; N 3.57; D 4.16
E20: D 4.27; L 2.82; H 2.65; S 2.64; I 2.79; C 2.44; F 2.27; G 2.81; V 2.79; T 3.19; K 3.58; P 3.75; A 3.49; M 2.73; R 3.77; Y 2.01
E21: V 3.08; I 2.26; R 2.48; G 2.83; T 3.36; M 2.88; C 2.55; A 3.22; Y 2.82; F 2.4; D 3.36; W 2.89; N 2.92; P 3.36; K 2.85; Q 2.91; H 3.31
Q23: L 3.12; W 3.56; N 3.67; G 3.47; M 3.31; C 3.58; V 3.11; Y 3.09; I 3.2; F 2.96; A 2.89; T 3.33; H 3.96; D 2.89; E 4.53
E22: K 3.74; N 4.15; C 2.82; S 2.89; W 2; F 2.6; Y 2.02; T 3.46; I 2.63; H 3.67; Q 3.2; M 2.56; D 3.41; G 3.12; P 2.56; L 3.38; A 4.08; V 4.13
A24: I 3.87; L 2.63; M 2.84; H 3.59; Y 3.55; S 3.94; N 3.88; D 4.56; V 3.28; K 4.51; E 3.29; W 2.44; G 3.51; C 3.14; R 2.99; F 2.55; Q 4.37; T 3.72; P 3.45
C18: R 4.21; H 4.7; I 3.49; W 4.59; N 4.38; A 5.26; S 4.92; F 3.81; E 5.13; T 4.86; K 4.27; P 3.47; Q 5.56; Y 4.27; L 4.82; V 4.76; M 4.61; D 5.2
L17: S 4.24; R 4.31; Y 3.34; T 4.3; N 4.43; M 3.19; P 5.04; Q 4.19; V 3.79; W 3.57

Variants of: B2
Assay: as above
Settings: c terminus: a fixed tail appended

Protein stability index, by site and new letter:
A8: T 1.83; W 1.91; F 3.96; S 1.49; I 2.05; N 1.4; Y 1.03; V 1.2; H 1.42; M 2.88; P 1.98; E 2.49; Q 1.64; C 1.7; L 2.55
Q1: D 1.9; T 2.27; V 2.23; A 2.01; H 2.21; Y 2.96; L 2.5; E 2.19; R 1.69; I 2.83; N 1.8; P 2.05; S 3.78
M2: Y 2.1; L 1.84; V 1.22; E 2.07; D 2.45; T 1.76; I 1.36; Q 2.01; N 1.92; A 1.46; H 1.57; G 2.78; C 1.61; K 2.4; F 1.78; S 1.14; P 1.46
E7: C 1.86; L 2.95; N 2.05; R 1.22; H 2.24; V 1.91; T 1.36; P 2.07; M 1.64; I 1.4; S 4; D 1.55; A 2.46; Y 1.8
Y12: C 3.06; F 1.67; N 4.47; E 4.41; L 2.03; H 2.98; G 4.56; S 4.55; R 4.75; D 4.96; I 2.62; A 4.22; T 4.17; K 4.88; P 5.08
A3: I 1.88; L 2.63; C 2.81; Y 2.83; P 1.63; Q 1.93; M 2.44; F 1.16; V 1.29; W 1.21; H 1.93; N 3.51; T 1.16
Q10: M 1.52; A 2.07; V 2.87; E 2.49; R 1.87; C 1.74; K 1.32; Y 2.59; N 2.03; F 1.28; T 2.79; G 1.72; D 2.01; H 2.03; S 2.06; P 2.08; L 2.09
F9: P 2.08; W 1.86; H 2.26; N 1.82; D 3.04; I 1.88; S 2.01; Q 1; T 2.11; M 1.72; E 3.65; C 1.41; K 2.63; L 2.37; A 2
K4: M 1.55; E 2.56; G 2.15; T 1.15; F 1.68; I 2.27; Y 2.25; D 2.94; N 2.38; C 1.86; V 1.47; P 2.3; Q 1.51; H 2.12; A 1.43
L11: V 2.98; I 2.85; D 1.82; S 2.23; C 1.92; E 3.48; H 3.32; N 2.1; P 4.05; M 1.59; Y 1.81; K 3.17; F 2.15; G 1.76; A 2.03
Q13: M 3.5; I 2.49; K 2.62; Y 1.96; E 2.92; G 3.57; P 3.87; N 3.82; D 4.08; F 1.52; S 1.8; C 2.46; L 3.2; T 2.85; H 3.6; R 2.81
A6: R 1.52; C 1.53; F 1.99; M 1.32; N 3.7; E 1.92; Y 1.53; T 1.38; V 1.75; P 2.37; Q 1.91; D 1.57; H 1.99; W 2.21; K 2.43
K5: T 2.01; G 1.92; R 2.3; H 1.75; D 2.1; E 2.21; N 1.42; C 2.68; Q 1.59; I 2.49; F 2.8; V 1.78; S 1.22; P 2.83; L 3.38
E14: C 2.61; G 2.58; D 2.13; K 1.83; A 1.3; I 3.03; H 1.94
